How the values were obtained:
[1] = Measurement of NO-scavenging ability (nitrite/dithionite/methyl viologen reaction, remaining nitrite by diazotization method); format: biochemical; conditions: reaction turnover number from Lineweaver-Burk plot; 2, 4, 6, 8 and 10 mM sodium nitrite; pH 7.0; 37° C.
Procedure: To a 10 ml vial, 0.3 ml of 100 mM phosphate buffer (pH 7.0), 0.4 ml of 10 mM sodium nitrite, 0.5 ml of a solution of each of the above-described peptides, and 0.4 ml of 3 mM methyl viologen (Tokyo Kasei Kogyo) were added. Then, the vial was tightly sealed with a butyl rubber stopper and an aluminum seal. This vial was kept at 37° C. for 5 min while feeding argon gas thereinto. Then, 0.3 ml of 100 mM sodium dithionite (dissolved in 50 mM sodium hydrogencarbonate) was added thereto to start the reaction. A 0.2 ml sample was taken from the reaction solution at regular intervals and air-oxidized in a vortex mixer to thereby terminate the reaction.
The amount of the remaining nitrite was determined by the diazotization method. 0.02 ml of the reaction solution was taken, and 1.98 ml of ultrapure water was added thereto. Then, 1 ml of 1% sulfanilamide, 1 ml of 0.02% N-1-naphthyl ethylenediamine chloride and 1 ml of ultrapure water were added thereto. The resultant solution was left at room temperature for 20 min. Then, absorption of the produced azo dye was measured at 540 nm, followed by calculation of the amount of the remaining nitrite from a working curve prepared from a nitrous acid solution of a known concentration.
The measurement of absorption was performed with Shimadzu UV-1600 UV-Visible Spectrophotometer.
Analysis based on reaction kinetics was performed by determining specific activities against 2, 4, 6, 8 and 10 mM sodium nitrite and then calculating the reaction turnover number kcat(s^−1) using a Lineweaver-Burk plot.

[2] = Isoelectric point by isoelectric focusing (Ampholine PAGplate gel, pH 3.5-9.5); format: physicochemical
Procedure: (§1) In the following Examples, reagents manufactured by Wako Purechemical Industries were used unless otherwise noted. Isoelectric point was analyzed by isoelectric focusing using Ampholine PAGplate gel (Pharmacia; for IEF; pH 3.5-9.5). Absorption maximum was determined with Hitachi U-3310 Spectrophotometer (Hitachi). Oxidation-reduction potential was determined with Hitachi U-3310 Spectrophotometer (Hitachi) and ORP electrode (Metrohm).

[3] = Oxidation-reduction potential (spectrophotometer and ORP electrode); format: physicochemical
Procedure: as §1

Molecule: mp15: heme peptide, SEQ ID NO: 3, heme bound to Cys 5 and 8; thermolysin digest of Porphyra yezonesis cytochrome c6 (FSANCAACHAGGNNA; heme bound to Cys5 and Cys8; listed as Porphyra yezoensis)
- Rate Constant kcat [1]: 2.54 s⁻¹
- Isoelectric point [2]: 4.15
- Oxidation-reduction potential [3]: −82.2 mV

Molecule: mp22: heme peptide, SEQ ID NO: 5, heme bound to Cys 4 and 7; chymotrypsin digest of horse cardiac muscle cytochrome c (VQKCAQCHTVEKGGKHKTGPNL; heme bound to Cys4 and Cys7; listed as Equus caballus)
- Rate Constant kcat [1]: 0.80 s⁻¹
- Isoelectric point [2]: 6.02
- Oxidation-reduction potential [3]: −66.5 mV

Molecule: mp65: heme peptide, SEQ ID NO: 6, heme bound to Cys 14 and 17; cyanogen bromide cleavage of horse cardiac muscle cytochrome c
- Rate Constant kcat [1]: 0.12 s⁻¹
- Isoelectric point [2]: 9.52
- Oxidation-reduction potential [3]: −62.1 mV

Molecule: mp9: heme peptide, SEQ ID NO: 4, heme bound to Cys 1 and 4; trypsin digest of horse cardiac muscle cytochrome c (CAQCHTVEK; heme bound to Cys1 and Cys4; listed as Equus caballus)
- Rate Constant kcat [1]: 1.66 s⁻¹
- Isoelectric point [2]: 4.95
- Oxidation-reduction potential [3]: −132 mV

Molecule: Horse cardiac muscle cytochrome c: horse cardiac muscle cytochrome c (Wako Purechemical Industries), SEQ ID NO: 1; comparison protein [reference compound]
- Rate Constant kcat [1]: 0.01521 s⁻¹

B1: Red alga Porphyra yezonesis cytochrome c6: cytochrome c6 purified from red alga Porphyra yezonesis, SEQ ID NO: 2; comparison protein (protein, listed as Porphyra yezoensis)
chain: ADLDNGEKVFSANCAACHAGGNNAIMPDKTLKKDVLEANSMNTIDAITYQVQNGKNAMPAFGGRLVDEDIEDAANYVLSQSEKGW
- Rate Constant kcat [1]: 0.05 s⁻¹
